Values of other authors in paper PMC9331682.

Molecular target: PD-1 (Homo sapiens) (UniProt Q15116)
Sequence (Q15116 25-170): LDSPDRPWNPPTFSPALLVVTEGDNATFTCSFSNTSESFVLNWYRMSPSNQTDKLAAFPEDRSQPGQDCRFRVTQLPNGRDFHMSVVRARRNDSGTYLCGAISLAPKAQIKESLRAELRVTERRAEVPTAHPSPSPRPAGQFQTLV

In the case of Dostarlimab, the Kd is given as 0.3 nM.
